Results taken from US20030088075A1 (Kyowa Kirin, published 2003).
Residue numbers refer to the chain shown, from its start.

Columns and labels:
[1] = target: T1, soluble human VEGF receptor Flt-1 7N (human, UniProt P17948 27-750); experiment: hybridoma culture supernatant; inhibition of 125I-VEGF (3 ng/ml) binding to coated Flt-1 7N
T1 construct: range 1-750; Secreted from baculovirus-infected High Five insect cells and purified on heparin-Sepharose; also called Flt 7N; soluble human Flt-1 7N
Protocol: (§1) Methanol was dispensed in 100 μl portions into wells of a 96 well MultiScreen-IP Plate (manufactured by Millipore) to give hydrophilic nature to the PVDF membrane on the bottom of the plate. After washing with water, the soluble human VEGF receptor Flt-1 7N diluted with PBS to a concentration of 1.6 μg/ml was dispensed in 50 μl/well portions and then allowed to stand overnight at 4° C. for its adsorption. After washing, PBS containing 1% bovine serum albumin (BSA) is dispensed in 50 μl/well portions and the reaction was carried out at room temperature for 1 hour to block the remained active groups. After washing with PBS, each hybridoma culture supernatant or a purified monoclonal antibody diluted with 1% BSA-PBS containing 0.5 M NaCl (0.01 to 7.29 μg/ml) was dispensed in 50 μl/well portions and then 3 ng/ml of ¹²⁵I-labeled human VEGF (manufactured by Amersham) was dispensed in 50 μl/well portions, subsequently carrying out the reaction at room temperature for 1.5 hours. After washing with 0 05% Tween-PBS, the wells were dried at 50° C., and Microscinti-0 (manufactured by Packard) was dispensed in 30 μl/well portions to measure the radioactivity of the ¹²⁵I-labeled human VEGF linked to each well using Top Count (manufactured by Packard).

[2] = target: T1, soluble human VEGF receptor Flt-1 7N; experiment: purified antibody; inhibition of 125I-VEGF binding to coated Flt-1 7N
Protocol: as §1

[3] = target: T2, human VEGF receptor Flt-1 expressed on cells (human, UniProt P17948 27-1338); experiment: purified antibody; inhibition of 125I-VEGF binding to NIH3T3-Flt-1 cells
T2 construct: whole, on cells; also called NIH3T3-Flt-1; human VEGF receptor Flt-1 expression cells
Protocol: PBS containing 1% bovine serum albumin (BSA) was dispensed in 100 μl portions into wells of a 96 well MultiScreen-HV Plate (manufactured by Millipore), the reaction was carried out at room temperature for 1 hour to block the active groups in the wells and then NIH3T3-Flt-1 cells suspended in 1% BSA-PBS containing 0.05% NaN₃ were dispensed in 5×10⁴ cells/well portions. After washing with 1% BSA-PBS, a purified monoclonal antibody (0.01 to 7.29 μg/ml) was dispensed in 50 μl/well portions and then 3 ng/ml of ¹²⁵I-labeled human VEGF (manufactured by Amersham) was dispensed in 50 μl/well portions and the reaction was carried out under cooling for 2 hours. After washing with PBS, the wells were dried at 50° C., and Microscinti-0 (manufactured by Packard) was dispensed in 30 μl/well portions to measure the radioactivity of the ¹²⁵I-labeled human VEGF linked to each well using Top Count (manufactured by Packard).

[4] = target: T3, soluble human VEGF receptor KDR 7N (human, UniProt P35968 20-757); experiment: ELISA, antigen coated at 4 µg/ml
T3 construct: range 20-757; Purity 70 to 80%; not shown: two amino acid residues derived from a linker
Protocol: First, the reactivity of anti-human VEGF receptor Fit-i mouse monoclonal antibodies KM1732 and KM1750 and anti-human VEGF receptor Flt-1 human chimeric antibodies KM2532 and KM2550 was compared using an immunoassay method. Each of Flt-1 7N, Flt-1 3N, Flt-1 2N, Flt-1 7N.K2 and KDR 7N diluted to 4 μg/ml with PBS was dispensed in 50 μl portions into wells of a 96 well plate for EIA (manufactured by Greiner) and allowed to stand overnight at 4° C. for its adsorption. After washing the plate with PBS, 100 μl of 1% BSA-PBS was added to each well, and the remaining active groups was blocked by carrying out the reaction at room temperature for 1 hour. After discarding 1% BSA-PBS, each of the purified anti-human VEGF receptor Flt-1 mouse monoclonal antibodies KM1732 and KM1750 or purified anti-human VEGF receptor Flt-1 human chimeric antibodies KM2532 and KM2550, having a concentration of from 0.1 μg/ml, was dispensed in 50 μl portions into the resulting wells to carry out the reaction at room temperature for 1 hour.

[5] = target: T3, soluble human VEGF receptor KDR 7N; experiment: enzyme immunoassay, antigen coated at 10 µg/ml
Excerpt: Next, in order to examine binding specificity of anti-human VEGF receptor Flt-1 human CDR-grafted antibodies KM8550, KM8551, KM8552, KM8553, KM8554 and KM8555 and anti-human VEGF receptor Flt-1 human chimeric antibody KM2550, their reactivity for five soluble human VEGF receptor derivative proteins Flt-1 7N, Flt-1 3N, Flt-1 2N (WO 98/22616), Flt-1 7N.K2 [2(6-5) of Example 2] and KDR 7N [2(6-5) of Example 2] was examined using an enzyme immunoassay. Concentration of each soluble human VEGF receptor derivative protein to be adsorbed on a 96 well plate for EIA was fixed to 10 μg/ml (3-fold dilution), and the antibody concentration was fixed to 5 μg/ml.

T3 sequence (P35968 20-757): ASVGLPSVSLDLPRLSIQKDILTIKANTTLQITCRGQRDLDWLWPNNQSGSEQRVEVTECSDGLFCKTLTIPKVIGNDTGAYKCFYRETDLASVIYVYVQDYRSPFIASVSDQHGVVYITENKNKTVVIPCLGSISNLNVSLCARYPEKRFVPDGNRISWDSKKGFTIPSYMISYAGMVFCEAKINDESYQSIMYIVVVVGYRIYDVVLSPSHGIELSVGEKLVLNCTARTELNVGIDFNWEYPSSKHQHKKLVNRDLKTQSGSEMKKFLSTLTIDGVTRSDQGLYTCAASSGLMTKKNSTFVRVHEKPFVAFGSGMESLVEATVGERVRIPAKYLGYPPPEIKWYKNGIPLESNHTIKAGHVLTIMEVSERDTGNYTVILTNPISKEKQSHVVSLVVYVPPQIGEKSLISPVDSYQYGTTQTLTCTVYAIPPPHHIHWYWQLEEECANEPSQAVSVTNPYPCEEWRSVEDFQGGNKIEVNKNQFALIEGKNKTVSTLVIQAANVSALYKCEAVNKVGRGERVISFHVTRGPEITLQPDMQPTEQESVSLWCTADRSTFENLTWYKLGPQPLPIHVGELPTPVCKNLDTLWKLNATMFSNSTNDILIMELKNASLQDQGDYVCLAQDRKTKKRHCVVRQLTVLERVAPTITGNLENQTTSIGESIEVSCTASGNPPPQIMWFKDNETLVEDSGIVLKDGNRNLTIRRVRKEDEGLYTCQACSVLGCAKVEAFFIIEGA
T1 sequence (P17948 27-750 limits assumed, form in doubt): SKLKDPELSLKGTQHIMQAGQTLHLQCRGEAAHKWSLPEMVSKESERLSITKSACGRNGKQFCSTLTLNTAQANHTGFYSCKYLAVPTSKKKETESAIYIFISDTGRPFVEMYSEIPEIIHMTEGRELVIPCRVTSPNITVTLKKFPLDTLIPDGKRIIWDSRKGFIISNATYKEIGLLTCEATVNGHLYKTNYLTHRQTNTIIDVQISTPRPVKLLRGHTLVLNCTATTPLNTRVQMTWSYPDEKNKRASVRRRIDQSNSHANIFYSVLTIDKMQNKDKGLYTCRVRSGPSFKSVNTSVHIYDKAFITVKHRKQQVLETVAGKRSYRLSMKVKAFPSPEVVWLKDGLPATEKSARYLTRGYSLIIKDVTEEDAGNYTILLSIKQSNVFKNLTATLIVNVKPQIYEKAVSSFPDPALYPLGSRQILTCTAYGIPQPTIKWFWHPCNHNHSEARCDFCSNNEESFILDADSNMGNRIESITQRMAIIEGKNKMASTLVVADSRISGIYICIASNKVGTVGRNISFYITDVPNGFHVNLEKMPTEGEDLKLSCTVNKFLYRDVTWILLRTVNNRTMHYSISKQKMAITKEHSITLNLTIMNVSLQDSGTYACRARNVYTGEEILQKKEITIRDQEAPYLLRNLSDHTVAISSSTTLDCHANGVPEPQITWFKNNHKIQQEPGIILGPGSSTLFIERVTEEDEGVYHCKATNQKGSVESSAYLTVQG
T2 sequence (P17948 27-1338): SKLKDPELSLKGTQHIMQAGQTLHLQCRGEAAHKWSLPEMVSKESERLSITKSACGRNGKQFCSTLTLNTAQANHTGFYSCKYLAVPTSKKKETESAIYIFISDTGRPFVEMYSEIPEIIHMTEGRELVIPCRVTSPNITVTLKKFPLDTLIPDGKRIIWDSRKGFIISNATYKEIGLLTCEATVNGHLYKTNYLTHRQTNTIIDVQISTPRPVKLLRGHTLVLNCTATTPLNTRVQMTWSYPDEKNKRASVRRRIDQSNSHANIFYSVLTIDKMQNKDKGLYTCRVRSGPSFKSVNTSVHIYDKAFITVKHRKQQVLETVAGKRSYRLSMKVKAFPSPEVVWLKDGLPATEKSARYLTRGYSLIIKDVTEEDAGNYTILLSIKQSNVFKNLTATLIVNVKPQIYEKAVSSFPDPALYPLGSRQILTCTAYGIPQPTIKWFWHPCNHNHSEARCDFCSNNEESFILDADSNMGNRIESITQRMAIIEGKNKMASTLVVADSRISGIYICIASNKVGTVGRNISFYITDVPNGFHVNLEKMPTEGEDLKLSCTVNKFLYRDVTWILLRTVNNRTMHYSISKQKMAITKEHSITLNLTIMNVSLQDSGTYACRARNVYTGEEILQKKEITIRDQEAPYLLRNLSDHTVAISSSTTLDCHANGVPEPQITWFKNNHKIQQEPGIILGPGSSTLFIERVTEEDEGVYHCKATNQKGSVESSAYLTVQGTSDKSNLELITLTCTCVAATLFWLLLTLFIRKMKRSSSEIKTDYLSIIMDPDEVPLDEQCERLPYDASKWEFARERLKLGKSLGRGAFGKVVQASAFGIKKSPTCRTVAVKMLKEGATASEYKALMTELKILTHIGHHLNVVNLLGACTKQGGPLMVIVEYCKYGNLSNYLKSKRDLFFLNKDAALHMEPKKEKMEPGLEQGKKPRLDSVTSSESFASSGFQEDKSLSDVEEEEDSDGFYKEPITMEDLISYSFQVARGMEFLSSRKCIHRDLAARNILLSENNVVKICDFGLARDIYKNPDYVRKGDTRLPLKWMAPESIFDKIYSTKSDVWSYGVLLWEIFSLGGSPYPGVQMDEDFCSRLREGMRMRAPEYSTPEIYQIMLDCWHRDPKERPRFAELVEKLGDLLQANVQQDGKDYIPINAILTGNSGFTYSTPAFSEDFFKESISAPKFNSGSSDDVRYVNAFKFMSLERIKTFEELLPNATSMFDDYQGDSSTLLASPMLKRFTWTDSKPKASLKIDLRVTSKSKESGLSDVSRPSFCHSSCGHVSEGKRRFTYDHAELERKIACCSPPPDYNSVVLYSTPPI

B1: anti-human VEGF receptor Flt-1 mouse monoclonal antibody KM1750 (antibody, mouse IgG2b, V domains shown)
VH: QAFLQQSGAELVRPGASVKMSCKASGYTFINYNMHWVKQTPRQGLEWIGAIFPGNGFTSYNQKFKGKATLTVDKSSSTVYMQLRSLTSEDSAVYFCARDGDYYFDYWGQGTTLTVSS
VL: QIVLTQSPAIMSASLGEEITLTCSASSSVSYMHWYQQKSGTSPKLLIYRTSNLASGVPFRFSGSGSGTFYSLTISSVEAEDAADYYCHQWSMYTFGGGTKLEIK
notes: mouse IgG2b; hybridoma FERM BP-5700; Used labeled with biotin on HUVEC; also called biotinated KM1750
Q: B1 was tested. Which inhibition ratio [1] did it give?
A: Its inhibition ratio is 66.3%.

Q: And the IC50 [2]?
A: Its IC50 is 2 mg/L.

Q: And the IC50 [3]?
A: The IC50 was 0.041 mg/L.

Q: Does B1 bind [4]?
A: Result: no binding (tested: 0.1 µg/ml antibody)

B2: anti-human VEGF receptor Flt-1 mouse monoclonal antibody KM1732 (antibody, mouse IgG1, V domains shown)
VH: QGQMQQSGAELVKPGASVKLSCKPSGFTFSSNYISWLKQKPGQSLEWIAWIYAGTGDASYNQKFTAKAHVTVDTSSSTAYMQLSSLTTEDSAIYYCARHGGDGYWFAYWGQGTLVTVSA
VL: QLVLTQSPAIMSASQGEKVTMTCSASSSVSYMHWYQQKSGTSPKRWIYDTSKLPSGVPARFSGSGSGTSYSLTISSMEAEDAATYYCQQWSSNPPTFGAGTKLELK
notes: mouse IgG1; hybridoma FERM BP-5698
Q: With B2 as the binder, how does the inhibition ratio [1] read?
A: The inhibition ratio was 83.1%.

Q: And the IC50 [2]?
A: Its IC50 is 1.1 mg/L.

Q: What about the IC50 [3] of the same binder?
A: The IC50 was 0.05 mg/L.

Q: Does B2 bind [4]?
A: Result: no binding (tested: 0.1 µg/ml antibody)

B3: anti-human VEGF receptor Flt-1 human chimeric antibody KM2532 (antibody, V domains shown)
VH: B2 VH
VL: B2 VL
notes: V regions of KM1732 joined to the human antibody C regions of vector pKANTEX93 (WO 97/10354); IgG type of about 150 kDa; Expressed in YB2/0 cells; also called p42532 [sic]
Q: Does B3 bind [4]?
A: Result: no binding (tested: 0.1 µg/ml antibody)

B4: anti-human VEGF receptor Flt-1 human chimeric antibody KM2550 (antibody, V domains shown)
VH: B1 VH
VL: B1 VL
notes: V regions of KM1750 joined to the human antibody C regions of vector pKANTEX93; IgG type; also called p42550 [sic]
Q: Does B4 bind [4]?
A: Result: no binding (tested: 0.1 µg/ml antibody)

B5: anti-human VEGF receptor Flt-1 human CDR-grafted antibody KM8550 (antibody, V domains shown)
VH: QVQLVQSGAEVKKPGASVKVSCKASGYTFINYNMHWVRQAPGQGLEWMGAIFPGNGFTSYNQKFKGRVTITVDKSTSTAYMELSSLRSEDTAVYYCARDGDYYFDYWGQGTLVTVSS
VL: DIQMTQSPSSLSASVGDRVTITCSASSSVSYMHWYQQKPGKAPKLLIYRTSNLASGVPSRFSGSGSGTDFTLTISSLQPEDFATYYCHQWSMYTFGQGTKVEIK
notes: also called pKANTEX1750HV0LV0(I)
Q: Does B5 bind [5]?
A: Result: no binding (tested: 5 µg/ml antibody)

B6: anti-human VEGF receptor Flt-1 human CDR-grafted antibody KM8552 (antibody, V domains shown)
VH: B5 VH with E82Q, S84R, Y95F
VL: B5 VL
notes: also called pKANTEX1750HV3LV0(I)
Q: Does B6 bind [5]?
A: Result: no binding (tested: 5 µg/ml antibody)

B7: anti-human VEGF receptor Flt-1 human CDR-grafted antibody KM8554 (antibody, V domains shown)
VH: B5 VH
VL: B5 VL with D17E, R18E, D69F, F70Y
notes: also called pKANTEX1750HV0LV4
Q: Does B7 bind [5]?
A: Result: no binding (tested: 5 µg/ml antibody)

B8: anti-human VEGF receptor Flt-1 human CDR-grafted antibody KM8555 (antibody, V domains shown)
VH: B5 VH with E82Q, S84R, Y95F
VL: B5 VL with D17E, R18E, D69F, F70Y
notes: also called pKANTEX1750HV3LV4
Q: Does B8 bind [5]?
A: Result: no binding (tested: 5 µg/ml antibody)

B9: anti-human VEGF receptor Flt-1 human CDR-grafted antibody KM8551 (antibody, V domains shown)
VH: B5 VH
VL: DIVMTQSPDSLAVSLGERATINCSASSSVSYMHWYQQKPGQPPKLLIYRTSNLASGVPDRFSGSGSGTDFTLTISSLQAEDVAVYYCHQWSMYTFGQGTKVEIK
notes: also called pKANTEX1750HV0LV0(IV)
Q: Does B9 bind [5]?
A: Result: no binding (tested: 5 µg/ml antibody)

B10: anti-human VEGF receptor Flt-1 human CDR-grafted antibody KM8553 (antibody, V domains shown)
VH: B5 VH with E82Q, S84R, Y95F
VL: B9 VL
notes: also called pKANTEX1750HV3LV0(IV)
Q: Does B10 bind [5]?
A: Result: no binding (tested: 5 µg/ml antibody)
